Assay: soluble on expression in E. coli; label from the status in PepcDB or PDB records
With “MNSLIPPPTSEQQMNMFRLRDKMSLLNAEFLKVINGYFTEKNHYDFSGTMKSYMDHVAQLKQIYKVDDDVAADMTVPRRTENSSESSGETVAPRKIAKAVRKNGTPKNPLNSTVFAASSPAATVASVPKFGDISVITKETPAPLAKTAEPLVAPAAPATARKRAIRGGGPLGGAESVVFKSGEDGQAATSSVKIPATTIKFPEPTKDFWTKKSDAPAAPSNSGSLFAFLGKELFSIKKNPPIYQNFSGDKPKETPKFSGFSFGKKPAEPSEEPKAADSTPKLTFGSPKEADLPKPASSLFGASPSKPLVFGGSSADSTTSAPKPFSALSTAASLFGSSSASTTTTATQPLSFGSSSTGGSSLFSGFAGLAQKAMENQNQAKPEGSGEDDEGEYVPPKVETVENQEPDAVLSSKVSVFKFTGKEYTKLGVGMLHIKDNDGKFSVLIRAATATGTVWLNSLCNKAMKATVVDAKGDRIRLTCPSSSTEMATMMIRFGTADGAKKFTDKILEVAV” the “soluble on expression in E. coli” value was “not soluble”. In the case of “MGKSLTEIAEELKGNDKKVQLIYAFNGTGKTRLSREFKNLIAPTSSEEPDGEPTRRKFLYYNAFTEDLFFWDNDLLANEAPRLKIQKNSFTDWLLRDNGLDGAVIKNFQYYTDDKLTPDFNDDFSEIAFYFARGNDEQIENIKISKGEESNFIWSIFYVLIRQVIAELNIPEDSEEGRSTDQFDDLEYIFIDDPVSSLDENHLIQQAVDLADLIKLSKPRLKFIITTHNVLFYNVLYNELKKLEKEKKSYLLLKNEDGSFDILEKQGDSNKSFSYHLHLKGVIEKAIENQQVERFHFMLLRNLYEKTANFLGYKQRSDILPEDSRRNYFQRIINFTSHSTLSNEAFAEPTPQEQETVKLLLQHLLDNYNFFQDDEQRDKP”, the “soluble on expression in E. coli” value is reported as “not soluble”. With “MAAGSGVVPPPLGAGLCTVKVEEDSPGNQESSGSGDWQNPETSRKQFRQLRYQEVAGPEEALSRLWELCRRWLRPELLSKEQIMELLVLEQFLTILPQELQAYVRDHSPESGEEAAALARTLQRALDRASPQVRLEWTLHGTREMA” the “soluble on expression in E. coli” value was “soluble”. In the case of “MTAIRFDHVDVIFGTHTKEALKLLDQGLGRAEILKRTGQVLGVEDACLDVNRGEICVLMGLSGSGKSSLLRCINGLNKVSRGKLLIEHEGSQVDIANCSPATLKAMRTKRIAMVFQKFALMPWLTVAENVGFGLEMQGRPAAERKKLIDEKLELVGLSQWRDKRPDSLSGGMQQRVGLARALAMDGDILLMDEPFSALDPLIRQQLQDELLVLQRQLHKTIVFVSHDLDEALKIGTRIAIMKDGRIIQHGKPEEIVLSPADDYVRTFVAHTNPLNVLCGQSLMRGLDQCIRQNDEICFDQGRDCWIGLSEGDVLKGARQGSNVIDLQRWRQGDPVEKLRREPTLVDVSIRMRDALQIRYQTGHKLVLQEQDRVVGVLGDSELYHALLGKN”, the “soluble on expression in E. coli” value is reported as “not soluble”. With “MGSSHHHHHHSSGLVPRSHMEQLEEDCVHRYGVNAFVLYRLPVVKEGMVVGIVGPNGTGKSTAVKILAGQLIPNLCGDNDSWDGVIRAFRGNELQNYFEKLKNGEIRPVVKPQYVDLIPKAVKGKVIELLKKADETGKLEEVVKALELENVLEREIQHLSGGELQRVAIAAALLRNATFYFFDEPSSYLDIRQRLNAARAIRRLSEEGKSVLVVEHDLAVLDYLSDIIHVVYGEPGVYGIFSQPKGTRNGINEFLRGYLKDENVRFRPYEIKFTKTGERVEIERETLVTYPRLVKDYGSFRLEVEPGEIKKGEVIGIVGPNGIGKTTFVKMLAGVEEPTEGKIEWDLTVAYKPQYIKADYEGTVYELLSKIDASKLNSNFYKTELLKPLGIIDLYDREVNELSGGELQRVAIAATLLRDADIYLLDEPSAYLDVEQRLAVSRAIRHLMEKNEKTALVVEHDVLMIDYVSDRLMVFEGEPGKYGRALPPMGMREGMNRFLASIGITFRRDPDTGRPRANKEGSVKDREQKEKGEYYYIA” the “soluble on expression in E. coli” value was “soluble”. With “MKVLPMLLALAVPGLCWAEDPQTFEGAGVVFEVQVEKNLVDIDHRLYRLPNSTVRNGMPSLFQVKPGSVVSYSGTVSQPWSTITDIYIHKQMSEQELAEMIEKEQPRQDGEEQPR” the “soluble on expression in E. coli” value was “not soluble”. In the case of “MAHHHHHHMTTLEKQLQSSTLSKQCRADLLNHVEEVETNSRRLPKKMITLPDPNLPSAVTMPTDNSVKRGTRSATAGANMARSLHYTTRKREKDEMVASRITSDRNLSGTYFKDCSHKFVNGARSWSDPFRSSRSRTALSGKDMDFVYRYAEAATGSAIERPQPADDASVAATAAYRKAFRQYKGRDPTAKEMEEAGRLVYAFDENCSVGVLQKPHSCYPHTHISAVKTHIRACPNQVYLPEVPPVRAARSEFPGPIPTWSSTKRTTTMATNGTYRPGHHQAKSLKWEAVSTVVGSR”, the “soluble on expression in E. coli” value is reported as “not soluble”. With “MQQDVSREHTINNGSSMADHDEHPIEQKEFYMLIGLDIGGTKIEICVLDKQGSMLYRQRIATPDNYSQFVDCVCSLIVDAEQATQPVDSIGIGLPGAVSPVTGLIKNANCTFLNGQDLSSDLQYRLGREVKLANDANCFALSEAIDGAGKESMVVFGAILGTGCGGSIVVNRQVLVGPNAICGEWGHNPLPGYHLEQDGAARYCYCGRQNCIERFISGSGFQDSYQALTGECITASEIMKRYKQQEPEAIHCYTQLIDHMARSFAGLVNVLDPDIIVLGGGLSNIDELYRDLPTATARHVFSDSAQVHFAKAVFGDSSGIRGAAWL” the “soluble on expression in E. coli” value was “not soluble”. For “MAARKVRIQTTINSNVYEHYIKKLLPEYGQLNKLIEEAVKQLFEIRENELSKLDRLRAKMMREAGVIAIGFESAEKALKGEIEKVLSENEINFLLEWYYGRPIEKIAFEEAIEFMRTALIAMNWAVDAKVNLEGEETHIMVRSNLGRGLAELLCMVIKHFFERNYGVEVRFSVYPGGYTLSFRHVSTDAYPCSSVRE”, the “soluble on expression in E. coli” value was “not soluble”. For “AIAMQISDTYNQKHSLFNAMNRFIGAVNNMDQTVMVPSLLRDVPLDMEVKDEVHNTIGATNYFSRTDMHGYYILLKSIRNDIEWGVVQGEDRKKDKLSNMEISRLEDGDGEEDLEKQFHYHLSGLHTVLNKLTRKAHILTNRYKEEIGFGSWGH”, the “soluble on expression in E. coli” value was “soluble”. With “MHHHHHHSSGLVPRGSGMKETAAAKFERQHMDSPDLGTDDDDKAMADIGSEFMSTYHERPLGPASAAEWFRQRSYDYGQFPPEDLARRKRELGLTVSAVLPSRNVADTVGGIIDEIHALNERAPLIDQILVVDADSEDGTAGVAASHGAEVYSENELMSGYGDAHGKGDAMWRALSVTRGDLVLYIDADTRDFRPQLAYGVLGPVLEVPGVRFVKAAYRRPFRKGESIEEDGGGRVTELTAKPLFNLFYPELAGFVQPLAGEFVADRELFCSIPFLTGYAVETGIMIDVLKKVGLGAMAQVDLGERQNRHQHLRDLSRMSYAVVRAVARRLRQEGRLQQLREPGLPESFFQLSDYLHAVATPEGLKLQEYVEELVERPPINEVLRVR” the “soluble on expression in E. coli” value was “soluble”. For “EGKKIVFISDIHHGPYFERERVADLVRKVNELEPDIIILGGDYVSGDVGYIGACFEELSRLKADMGIFGVTGNHDEWTDYNLTVKCMENAGITVLSNRAEWLEIGDDKIKIAGVDWSTDWYFNSEPYVDPLIKDAEENDFVILVSHTPDLAEELTTDKVDLVLSGHTHGGQITFFGLWAPYVPSFYGQKYRTGIVKTDKTMALVSNGVGNTFLPIRFF”, the “soluble on expression in E. coli” value was “not soluble”. For “PGPPQGPPQPVQQSKRLQQTQAQVEEVVDIMRVNVDKVLERDSKISELDDRADALQAGASQFEASAGKLKRKFWWKNCKM”, the “soluble on expression in E. coli” value was “soluble”. In the case of “MGGMTGMNNNAIKVVSVLAIGARERIALVEVGQQQILLGITPSTIRTLHVFDEPVVDAGNAGSSDFARKLQSMIGKSWSAPERKDLEHHHHHH”, the “soluble on expression in E. coli” value is reported as “not soluble”. For “MTLTQIHALLAVLEYGGFTEASKRLYMTQSAVSQAISALEEELGVDILIRERRKEIELTAAGSRIVRHLRAIQRDVNAVKEIAEQEKKNPARTLRIGCFPSACACILPGVIRYFESHHPNVKIIPYEENSTAIIDSLQDGSIDAGFVPFPVNGMYCVPIYRDKFTVVVPENHPLAANSTVTVEELMDEPLIVSKGRYELSIMALFKEKGIEPIFKYEFNHPDTALNFIRQGLGIALLPELTLKATTGKLCSVALEPTFYRQISLLAKEPPVEGSPLFLLQKCMETLTDEGLL”, the “soluble on expression in E. coli” value was “not soluble”. For “MGGSHHHHHHGMASALLDIECFTYLHRALESSIAPIVIFASNRGNCVIRGTEDITSPHGIPLDLLDRVMIIRTMLYTPQEMKQIIKIRAQTEGINISEEALNHLGEIGTKTTLRYSVQLLTPANLLAKINGKDSIEKEHVEEISELFYDAKSSAKILADQQDKYMK”, the “soluble on expression in E. coli” value was “not soluble”. With “MGQRKYGGPPPGWDSTPPERGCEIFIGKLPRDLFEDELIPLCEKIGKIYEMRLMMDFNGNNRGYAFVTFSNKQEAKNAIKQLNNYEIRTGRLLGVCASVDNCRLFVGGIPKTKKREEILSEMKKVTEGVVDVIVYPSAADKTKNRGFAFVEYESHRAAAMARRRLLPGRIQLWGHPIAVDWAEPEVEVDEDTMSSVKILYVRNLMLSTSEEMIEKEFNSIKPGAVERVKKIRDYAFVHFSNREDAVEAMKALNGKVLDGSPIEVTLAKPVDKDSYVRYTRGTGGRNTMLQGEYTYPLSHVYDTTTTYLGAPVFYTPQAYAAIPSLHFPATKGHLSNRALIRTPSVRGNTS” the “soluble on expression in E. coli” value was “soluble”. In the case of “MCGRFTLTLPPDLLAEIIGEIEAARVQPRYNIAPAQEVAVVRQDAGGRRHLDYLRWGLIPPWAKDASVGNHMINARSETVAEKPAFRHAFRSRRCLVLASGFYEWKAEGNRKQPLYIHMKDGGPMVFAGLWESWKSPEGAIVESCTILTTYSNSLIRPLHDRMPVILGRSDWDIWLSREATSEELTPLFQPYPSDLLAMYPVGTGVNSPRNDSPDLLEPLNEPLEHHHHHH”, the “soluble on expression in E. coli” value is reported as “not soluble”. In the case of “MDKEETKTKPRLLRYEEKKYEDVKPLETQPAEIAEKETLEYKTVRTFSESLKSEKTEDYLRESIIQQHMVSPEPASLKEKGKSRRKKDQTHACPNVRKARPVSYDRTEPKDDDVIRNIIRLREKLGWQTILPQHSLKYGSSKIAIQKITLKKPLEDDGEFVYCLPRKSPKSLYNPYDLQVINIVGSVKE”, the “soluble on expression in E. coli” value is reported as “soluble”. For “MAEMGSKGVTAGKIASNVQKKLTRAQEKVLQKLGKADETKDEQFEQCVQNFNKQLTEGTRLQKDLRTYLASVKAMHEASKKLNECLQEVYEPDWPGRDEANKIAENNDLLWMDYHQKLVDQALLTMDTYLGQFPDIKSRIAKRGRKLVDYDSARHHYESLQTAKKKDEAKIAKAEEELIKAQKVFEEMNVDLQEELPSLWNSRVGFYVNTFQSIAGLEENFHKEMSKLNQNLNDVLVGLEKQHGSNTFTVKAQPSDNAPAKGNKSPSPPDGSPAATPEIRVNHEPEPAGGATPGATLPKSPSQSSLPAVVVETFPATVNGTVEGGSGAGRLDLPPGFMFKVQAQHDYTATDTDELQLKAGDVVLVIPFQNPEEQDEGWLMGVKESDWNQHKELEKCRGVFPENFTERVP”, the “soluble on expression in E. coli” value was “soluble”. For “MKYKSGIFAAIHETMQGLHDIGAIDKKTMRGFDKSCLTEIKPLSGGDIKAIREKEALSQAAFAIYLNVGKNHVSAWERGVKKPSGAALKLLTIVKNKGIEAIA”, the “soluble on expression in E. coli” value was “not soluble”. With “MKHKLIDDELKYLDERSRDIFRHIVEAYLNDGGPVGSRNLSRLLRQTLSPATIRNVMSDLEHLGLIYAPHVSAGRMPTQSGLRFFVDAFMEAGDLPNEERENIEAQVKEAGHAQSVEHFLVQASQVLSDLSRGAGLVLATKHEGTLKHIEFVRLDGEHALAVLVTQQGGVENRIVHLPEGVTHAQLTEATNFLNAHIQGLTLSEAKEEIARLCSETRAALDHLSHHLVETGLALWGGEGADHKIRLIVRGRSNLLEDVKAEEDLKRLRHLFDDLETRESMAQLLDLTDEGSGVRIFIGSENKLFSLSGSSLVVAPYRDSQQKVIGALGVIGPTRLNYARIVPMVDYTAQLVSQLLR” the “soluble on expression in E. coli” value was “not soluble”. In the case of “MNYVERYIEQFLRATVRNNIKHYLLMLDEKMKNLDDYMRYLITKKEQLSKLIDSLMLTLENKYIDIAEAFQIQCAREINNQEIENIKSELNKVEAYYAQIETQIQQTSTEKIATEKTSYLINYMNAVALEHHHHHH”, the “soluble on expression in E. coli” value is reported as “soluble”.

From the DeepSol protein solubility set
